Assay results published in paper PMC4943463.

Biological target: A3B-CTD (APOBEC3B C-terminal domain, wild type) (Homo sapiens, UniProt Q9UH17 187-382)
Test: NMR titration

A3B-CTD (APOBEC3B C-terminal domain, wild type), sequence (Q9UH17 187-382): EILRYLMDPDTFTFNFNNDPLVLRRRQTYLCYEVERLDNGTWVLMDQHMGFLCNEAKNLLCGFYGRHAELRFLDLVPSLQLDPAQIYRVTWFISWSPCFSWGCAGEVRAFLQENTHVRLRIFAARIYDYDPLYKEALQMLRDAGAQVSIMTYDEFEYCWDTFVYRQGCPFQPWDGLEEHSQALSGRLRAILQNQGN

## ATTTUATTT (ssDNA, deoxyuridine at position 5 (DNA oligonucleotide, U in place of target C)) [9-nt U-containing oligonucleotide ATTTUATTT]
  Kd: 119 ± 26 µM
